Laboratory results published in publication PMC5692591.

Key:
[1] = molecular target: FpvAI (ferripyoverdine transporter of P. aeruginosa PAO1), recombinant (P. aeruginosa PAO1); assay: ITC
[2] = molecular target: TonB1 periplasmic domain (residues 109–342) (P. aeruginosa); assay: ITC
[3] = molecular target: FpvAI (ferripyoverdine transporter of P. aeruginosa PAO1), recombinant (P. aeruginosa PAO1)

Substance | Kd [1] [nM] | dH [1] [kcal/mol] | stoichiometry N [1] [sites] | Kd [2] [nM] | fold decrease of binding against pyoS2^NTD [3] [fold]
N-terminal domain of pyocin S2 (pyoS2^NTD), residues 1–209 (from UniProt Q06584 1-209) (domain or fragment) | 0.24 | -15.8 | 0.78 | 1000 | 
Δ1–45 pyoS2^NTD (from UniProt Q06584 46-209) (domain or fragment) |  |  |  |  | 1000
